In patent JP2023550785A (dated 2023):

Assays:
[1] = target: T1, MERS-CoV (London1/2012) prefusion-stabilized spike (S) protein / S ectodomain trimer (MERS-CoV (London1/2012), UniProt K9N5Q8 18-1296)
T1 sequence: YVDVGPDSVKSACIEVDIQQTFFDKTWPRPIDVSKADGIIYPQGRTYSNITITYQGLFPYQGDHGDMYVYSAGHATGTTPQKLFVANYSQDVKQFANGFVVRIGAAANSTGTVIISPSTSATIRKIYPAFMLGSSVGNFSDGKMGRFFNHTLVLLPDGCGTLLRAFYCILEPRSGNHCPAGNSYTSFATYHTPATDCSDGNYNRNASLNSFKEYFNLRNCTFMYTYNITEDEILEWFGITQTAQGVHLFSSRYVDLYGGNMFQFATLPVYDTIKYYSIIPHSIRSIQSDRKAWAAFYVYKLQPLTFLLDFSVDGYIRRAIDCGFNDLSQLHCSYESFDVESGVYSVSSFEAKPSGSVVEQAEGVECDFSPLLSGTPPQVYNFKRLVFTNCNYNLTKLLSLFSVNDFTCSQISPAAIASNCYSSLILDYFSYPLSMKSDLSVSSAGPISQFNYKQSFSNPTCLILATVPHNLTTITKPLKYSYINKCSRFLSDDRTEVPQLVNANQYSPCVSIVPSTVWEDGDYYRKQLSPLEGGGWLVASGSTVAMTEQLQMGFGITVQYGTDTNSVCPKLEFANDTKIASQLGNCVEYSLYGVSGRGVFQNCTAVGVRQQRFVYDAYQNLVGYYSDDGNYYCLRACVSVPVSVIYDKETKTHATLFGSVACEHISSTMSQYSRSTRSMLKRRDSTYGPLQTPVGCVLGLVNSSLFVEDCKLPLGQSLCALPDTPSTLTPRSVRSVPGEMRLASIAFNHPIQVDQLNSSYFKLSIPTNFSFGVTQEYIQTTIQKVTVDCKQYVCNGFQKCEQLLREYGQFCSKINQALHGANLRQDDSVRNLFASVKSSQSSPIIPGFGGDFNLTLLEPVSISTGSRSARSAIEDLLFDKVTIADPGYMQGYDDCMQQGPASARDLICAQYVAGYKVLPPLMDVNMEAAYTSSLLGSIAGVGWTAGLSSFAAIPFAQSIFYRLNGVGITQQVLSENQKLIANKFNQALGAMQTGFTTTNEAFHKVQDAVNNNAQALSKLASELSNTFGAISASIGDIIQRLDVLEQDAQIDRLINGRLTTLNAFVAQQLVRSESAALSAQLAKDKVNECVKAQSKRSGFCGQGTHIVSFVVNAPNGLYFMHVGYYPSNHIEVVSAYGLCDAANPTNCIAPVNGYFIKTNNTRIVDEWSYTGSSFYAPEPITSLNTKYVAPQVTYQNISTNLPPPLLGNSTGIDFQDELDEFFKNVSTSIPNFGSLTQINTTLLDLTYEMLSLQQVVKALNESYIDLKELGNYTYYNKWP

[2] = target: T2, HCoV-OC43 prefusion-stabilized spike (S) protein / S ectodomain trimer (human coronavirus OC43, UniProt P36334 14-1297)
T2 sequence: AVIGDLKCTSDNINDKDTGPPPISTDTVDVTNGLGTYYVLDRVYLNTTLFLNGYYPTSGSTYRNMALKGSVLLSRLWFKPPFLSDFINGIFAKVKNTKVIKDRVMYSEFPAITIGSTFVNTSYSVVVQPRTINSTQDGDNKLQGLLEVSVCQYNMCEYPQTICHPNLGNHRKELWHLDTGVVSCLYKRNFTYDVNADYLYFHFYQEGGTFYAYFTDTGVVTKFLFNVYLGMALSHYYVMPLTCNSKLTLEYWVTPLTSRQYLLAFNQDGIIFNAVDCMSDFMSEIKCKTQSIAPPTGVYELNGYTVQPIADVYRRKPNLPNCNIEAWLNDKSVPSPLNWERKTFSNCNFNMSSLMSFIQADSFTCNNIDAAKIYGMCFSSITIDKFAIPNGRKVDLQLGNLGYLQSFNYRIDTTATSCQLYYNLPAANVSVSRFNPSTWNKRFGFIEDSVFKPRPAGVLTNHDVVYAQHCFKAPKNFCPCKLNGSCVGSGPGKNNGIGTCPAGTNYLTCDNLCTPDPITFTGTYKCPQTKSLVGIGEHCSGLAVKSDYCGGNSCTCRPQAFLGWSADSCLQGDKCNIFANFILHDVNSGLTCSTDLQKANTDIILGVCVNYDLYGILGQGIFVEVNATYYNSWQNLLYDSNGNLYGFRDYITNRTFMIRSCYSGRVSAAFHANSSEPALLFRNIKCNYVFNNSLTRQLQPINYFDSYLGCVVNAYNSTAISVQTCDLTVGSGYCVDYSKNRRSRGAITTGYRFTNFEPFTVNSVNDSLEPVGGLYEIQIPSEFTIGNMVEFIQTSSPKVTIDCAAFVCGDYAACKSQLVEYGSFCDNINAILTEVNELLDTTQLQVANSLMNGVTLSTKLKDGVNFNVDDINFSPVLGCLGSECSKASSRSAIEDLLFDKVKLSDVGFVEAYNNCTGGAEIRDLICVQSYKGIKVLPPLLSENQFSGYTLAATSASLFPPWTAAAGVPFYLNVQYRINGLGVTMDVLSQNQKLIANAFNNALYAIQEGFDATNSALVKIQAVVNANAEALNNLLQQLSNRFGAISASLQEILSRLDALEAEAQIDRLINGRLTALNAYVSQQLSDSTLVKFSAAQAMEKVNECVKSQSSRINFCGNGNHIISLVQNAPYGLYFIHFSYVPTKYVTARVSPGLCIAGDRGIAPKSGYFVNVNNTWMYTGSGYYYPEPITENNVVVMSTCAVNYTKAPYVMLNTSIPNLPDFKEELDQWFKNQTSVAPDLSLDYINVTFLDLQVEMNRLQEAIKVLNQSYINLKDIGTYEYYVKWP

[3] = target: SARS-CoV (Urbani strain) prefusion-stabilized spike (S) protein / S ectodomain trimer (SARS-CoV (Urbani strain), UniProt P59594 14-1195)

B1: antibody S2P6 (antibody 420 1 1), human monoclonal antibody expressed as recombinant human IgG1 (antibody, V domains shown)
VH: EVQLVQSGAEVKKPGASVKVSCKASGYTFTSQYMHWVRQAPGQGLEWIGIINPSGVHTSYAQKFQGRVTLTRDTSTSTLYMELSSLRSEDTAVYYCARGSPKGAFDYWGQGTLVTVSS
VL: not shown
Question: Which results are given for B1?
Answer: Kd [1]: 1.14 nM; Kd [2]: 0.372 nM; Kd [3]: < 0.001 nM
